Assay results as given in paper PMC12561925.

B1: recombinant soluble murine EphB3 Fc fusion protein (Fc fusion)
chain: LEETLMDTKWVTSELAWTSHPESGWEEVSGYDEAMNPIRTYQVCNVRESSQNNWLRTGFIWRREVQRVYVELKFTVRDCNSIPNIPGSCKETFNLFYYEADSDVASASSPFWMENPYVKVDTIAPDESFSRLDAGRVNTKVRSFGPLSKAGFYLAFQDQGACMSLISVRAFYKKCASTTAGFALFPETLTGAEPTSLVIAPGTCIANAVEVSVPLKLYCNGDGEWMVPVGACTCATGHEPAAKESQCRACPPGSYKAKQGEGPCLPCPPNSRTTSPAASICTCHNNFYRADSDSADSACTTVPSPPRGVISNVNETSLILEWSEPRDLGGRDDLLYNVICKKCRGSSGAGGPATCSRCDDNVEFVPRQLGLTERRVHISHLLAHTRYTFEVQAVNGVSGKSPLPPRYAAVNITTNQAAPSEVPTLHLHSSSGSSLTLSWAPPERPNGVILDYEMKYFEKSKGIASTVTSQKNSVQLDGLQPDARYVVQVRARTVAGYGQYSHPAEFETTSERGSGAQQLQEQLPL

Legend:
[1] = target: MHV68 gL-gH fusion protein (gL-Linker-gH-Linker-His6) (murine gammaherpesvirus 68 (MHV68)); experiment: ELISA; MHV68 gL-gH fusion protein coated at 2.5 μg/ml in PBS on Maxisorp plates; soluble dimeric Eph-Fc proteins 2 h at room temperature in 1% BSA in PBS; detected with HRP-conjugated ProteinG; OD 450 nm; four-parameter dose-response fit
[2] = target: MHV68 gL-gH fusion protein (gL-Linker-gH-Linker-His6) (murine gammaherpesvirus 68 (MHV68))

Molecule	EC50 [1]	reduction of MHV68 ORF59-GFP infection of the murine endothelial cell line SVEC4-10 after pre-incubation of the virus with 100 nM homodimerized mEphA4-Fc [2]	inhibition of MHV68 ORF59-GFP infection of human fibroblasts (HFF) and endothelial cells (TIME) after pre-incubation of the virus with 100 nM homodimerized mEphB3-Fc [2]
recombinant soluble murine EphA4 Fc fusion protein (from UniProt Q03137-1 20-547)	3.6 nM	25%	–
B1	2.3 nM	–	30%
